Reference: patent US20150037340A1 (PEIRRE FABRE MEDICAMENT, published 2015)

Assays:
[1] = target: human protein Axl (cellular form on the cell surface) (human) (UniProt P30530); assay: flow cytometry, 9G4 labelling of SN12C cells treated 24 h with 9G4
[2] = target: human protein Axl (cellular form on the cell surface) (human) (UniProt P30530); assay: flow cytometry, 9G4 labelling of untreated (No Ab) SN12C cells
[3] = target: human protein Axl (cellular form on the cell surface) (human) (UniProt P30530); assay: cell-based or functional assay
[4] = target: human protein Axl (cellular form on the cell surface) (human) (UniProt P30530); assay: Qifikit quantitative flow cytometry on A172 cells
[5] = target: human protein Axl (cellular form on the cell surface) (human) (UniProt P30530); assay: Qifikit quantitative flow cytometry on NCI-H125 cells
[6] = target: human protein Axl (cellular form on the cell surface) (human) (UniProt P30530); assay: flow cytometry, MAB154 labelling of untreated (No Ab) SN12C cells
[7] = target: human protein Axl (cellular form on the cell surface) (human) (UniProt P30530); assay: Qifikit quantitative flow cytometry on NCI-H226 cells
[8] = target: human protein Axl (cellular form on the cell surface) (human) (UniProt P30530); assay: Qifikit quantitative flow cytometry on MDA-MB-435S cells
[9] = target: human protein Axl (cellular form on the cell surface) (human) (UniProt P30530); assay: Qifikit quantitative flow cytometry on DU-145 cells
[10] = target: human protein Axl (cellular form on the cell surface) (human) (UniProt P30530); assay: Qifikit quantitative flow cytometry on PC3 cells
[11] = target: human protein Axl (cellular form on the cell surface) (human) (UniProt P30530); assay: Qifikit quantitative flow cytometry on Calu-1 cells
[12] = target: human protein Axl (cellular form on the cell surface) (human) (UniProt P30530); assay: Qifikit quantitative flow cytometry on MDA-MB-231 cells
[13] = target: human protein Axl (cellular form on the cell surface) (human) (UniProt P30530); assay: Qifikit quantitative flow cytometry on MCF7 cells
[14] = target: human protein Axl (cellular form on the cell surface) (human) (UniProt P30530); assay: Qifikit quantitative flow cytometry on A431 cells
[15] = target: human protein Axl (cellular form on the cell surface) (human) (UniProt P30530); assay: Qifikit quantitative flow cytometry on Panc1 cells
[16] = target: human protein Axl (cellular form on the cell surface) (human) (UniProt P30530); assay: Qifikit quantitative flow cytometry on SN12C cells
[17] = target: T1, human protein Axl (cellular form on the cell surface) (human, UniProt P30530 26-894); assay: flow cytometry on SN12C cells, anti-human IgG Alexa488; table under the graph, unit from the axis Log [M]
T1 construct: also called Axl receptor; membrane Axl receptor
T1 sequence: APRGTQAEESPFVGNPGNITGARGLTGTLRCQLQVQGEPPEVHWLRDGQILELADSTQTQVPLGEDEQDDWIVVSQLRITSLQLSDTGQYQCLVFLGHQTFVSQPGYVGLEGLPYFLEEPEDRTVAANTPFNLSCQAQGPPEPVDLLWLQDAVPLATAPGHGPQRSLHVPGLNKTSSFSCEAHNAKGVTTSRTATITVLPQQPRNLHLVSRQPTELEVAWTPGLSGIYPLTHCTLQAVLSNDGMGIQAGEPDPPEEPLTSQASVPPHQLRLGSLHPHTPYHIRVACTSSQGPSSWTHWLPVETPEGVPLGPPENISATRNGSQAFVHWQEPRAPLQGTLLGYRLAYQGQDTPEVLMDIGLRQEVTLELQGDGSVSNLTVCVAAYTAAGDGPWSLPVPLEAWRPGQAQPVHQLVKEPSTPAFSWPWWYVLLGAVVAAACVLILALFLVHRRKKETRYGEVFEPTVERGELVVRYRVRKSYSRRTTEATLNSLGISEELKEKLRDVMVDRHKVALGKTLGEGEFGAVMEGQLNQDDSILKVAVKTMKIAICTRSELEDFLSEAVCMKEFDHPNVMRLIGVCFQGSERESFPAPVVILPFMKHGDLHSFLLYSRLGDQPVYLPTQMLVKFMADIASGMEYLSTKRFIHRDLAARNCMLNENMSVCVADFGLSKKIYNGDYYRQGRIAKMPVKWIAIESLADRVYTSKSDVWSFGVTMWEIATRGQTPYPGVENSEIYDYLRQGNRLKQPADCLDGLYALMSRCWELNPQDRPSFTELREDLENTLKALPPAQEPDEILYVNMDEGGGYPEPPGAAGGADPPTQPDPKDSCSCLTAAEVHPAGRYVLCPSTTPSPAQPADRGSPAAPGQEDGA
Description: Cells were detached using trypsin and cell concentration was adjusted at 1×10⁶ cells/ml in FACS buffer. A volume of 100 μL of cell suspension was incubated with increasing concentrations of either isotype controls or anti-Axl antibodies for 20 min. at 4° C. Cells were then washed three times with FACS buffer and incubated for 20 min. more using either anti-mouse IgG Alexa488 secondary antibody or anti-human IgG Alexa488 secondary antibody at 4° C. in the dark. Cells were washed three times with FACS buffer and resuspended with 100 μl of FACS buffer before adding propidium iodide.

9G4 murine IgG1 isotype control antibody
MFI at T24 h [1]: 13 MFI | MFI at T24 h [2]: 11 MFI | % remaining Axl, SN12C cells [3]: 117% | Δ (MFI No Ab 24 h - MFI Ab 24 h), SN12C cells [3]: -2 MFI

MAB154 commercial anti-Axl antibody (R and D Systems, ref MAB154)
ABC (Qifikit) [4]: 52400 ABC | ABC (Qifikit) [5]: 5540 ABC | MFI at T24 h [6]: 950 MFI | ABC (Qifikit) [7]: 32100 ABC | ABC (Qifikit) [8]: 17800 ABC | ABC (Qifikit) [9]: 55300 ABC | ABC (Qifikit) [10]: 8420 ABC | ABC (Qifikit) [11]: > 100000 ABC | ABC (Qifikit) [12]: 61200 ABC | ABC (Qifikit) [13]: 71 ABC | ABC (Qifikit) [14]: 3950 ABC | ABC (Qifikit) [15]: 36800 ABC | ABC (Qifikit) [16]: > 100000 ABC | antigen binding capacity (ABC) [16]: > 100000 ABC

B1: c1613F12 (chimeric 1613F12) (antibody, V domains shown)
VH: EVHLQQSGAELVKPGASVKLSCTASGFNIRDTYIHWVKQRPEQGLEWIGRLDPANGHTKYGPNFQGRATMTSDTSSNTAYLQLSSLTSEDTAVYYCARGAYYYGSSGLFYFDYWGQGTTLSVSS
VL: DVQITQSPSYLATSPGETITINCRASKSISKYLAWYQEKPGKTNKLLIYSGSTLQSGVPSRFSGSGSGTDFTLTISSLEPEDFAMYFCQQHHEYPLTFGAGTELELK
notes: Murine variable domains with human constant regions; also called chimeric form of the 1613F12
EC50 [17]: 1.81 nM
